For 2 molecules, binding result and Kd results are on record in PMC4490372, “Architecture of TFIIIC and its role in RNA polymerase III pre-initiation complex assembly” (Nature Communications, 2015).

Usually Kd stands for the concentration at which binding is half-saturated. A high value points to lower affinity.

The target in assay [1] is T1, τ138 (Tfc3), τB subunit of endogenous S. cerevisiae TFIIIC (S. cerevisiae, UniProt P34111 1-1160).
T1 construct: τ138 (Tfc3), subunit of S. cerevisiae TFIIIC, endogenous subunit in the purified complex; source: endogenous, purified from S. cerevisiae strain SC2342 as part of TFIIIC (TAP tag on τ60)
T1 sequence (looked up): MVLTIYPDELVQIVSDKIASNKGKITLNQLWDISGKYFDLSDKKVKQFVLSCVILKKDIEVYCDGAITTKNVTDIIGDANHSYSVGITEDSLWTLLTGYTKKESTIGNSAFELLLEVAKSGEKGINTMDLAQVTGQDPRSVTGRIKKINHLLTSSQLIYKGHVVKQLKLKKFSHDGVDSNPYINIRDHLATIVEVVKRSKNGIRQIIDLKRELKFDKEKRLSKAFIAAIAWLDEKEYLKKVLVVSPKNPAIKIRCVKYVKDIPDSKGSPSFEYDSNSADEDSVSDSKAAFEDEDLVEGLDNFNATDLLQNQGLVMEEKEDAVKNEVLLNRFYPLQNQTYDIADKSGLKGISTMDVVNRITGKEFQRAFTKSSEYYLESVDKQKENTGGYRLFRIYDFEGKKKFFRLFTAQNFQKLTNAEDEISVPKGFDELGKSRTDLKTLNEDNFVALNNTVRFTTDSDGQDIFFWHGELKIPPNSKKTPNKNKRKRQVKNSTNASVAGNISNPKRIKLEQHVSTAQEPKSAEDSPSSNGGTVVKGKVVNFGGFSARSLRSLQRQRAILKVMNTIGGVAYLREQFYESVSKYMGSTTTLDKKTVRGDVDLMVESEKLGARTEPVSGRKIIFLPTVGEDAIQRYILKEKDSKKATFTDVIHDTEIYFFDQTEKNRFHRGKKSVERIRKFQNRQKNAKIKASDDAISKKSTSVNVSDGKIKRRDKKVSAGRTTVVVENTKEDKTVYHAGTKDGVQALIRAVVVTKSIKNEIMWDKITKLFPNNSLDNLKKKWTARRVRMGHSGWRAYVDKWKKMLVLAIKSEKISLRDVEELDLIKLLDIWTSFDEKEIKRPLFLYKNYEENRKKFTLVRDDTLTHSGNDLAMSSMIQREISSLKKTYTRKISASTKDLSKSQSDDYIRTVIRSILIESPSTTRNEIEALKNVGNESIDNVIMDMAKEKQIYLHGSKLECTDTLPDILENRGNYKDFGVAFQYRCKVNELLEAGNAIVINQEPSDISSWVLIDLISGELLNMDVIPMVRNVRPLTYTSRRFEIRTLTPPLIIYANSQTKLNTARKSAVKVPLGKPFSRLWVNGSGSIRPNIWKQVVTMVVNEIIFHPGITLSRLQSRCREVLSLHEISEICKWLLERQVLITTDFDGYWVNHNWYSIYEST
As to the kind of experiment: cross-linking; XL-MS: purified endogenous TFIIIC (30 μg, 1 μg/μl) cross-linked with H12/D12 DSS to 2 mM, 40 min at 37 °C; ld-score >25. To be noted: both partners purified.

Assay [2] concerns the target T2, τ131 (123–566) E472K (S. cerevisiae, UniProt P33339 123-566, E472K).
T2 sequence: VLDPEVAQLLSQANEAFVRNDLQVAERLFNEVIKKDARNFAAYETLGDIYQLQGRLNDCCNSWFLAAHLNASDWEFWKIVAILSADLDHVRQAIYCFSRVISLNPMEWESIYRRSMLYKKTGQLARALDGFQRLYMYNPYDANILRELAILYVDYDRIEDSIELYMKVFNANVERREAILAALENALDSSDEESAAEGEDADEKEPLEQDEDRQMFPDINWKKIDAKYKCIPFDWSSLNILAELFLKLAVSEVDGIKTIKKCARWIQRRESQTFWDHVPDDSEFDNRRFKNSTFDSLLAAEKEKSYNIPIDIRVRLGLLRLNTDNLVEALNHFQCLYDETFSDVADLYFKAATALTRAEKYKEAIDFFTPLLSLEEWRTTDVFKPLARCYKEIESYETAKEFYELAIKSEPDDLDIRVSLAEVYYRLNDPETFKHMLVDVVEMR
As to the kind of experiment: ITC. (In general: Isothermal titration calorimetry measures the heat released or taken up as one component is titrated into another.)

In assay [3] the target is T3, τ131 (123–566) E498K (S. cerevisiae, UniProt P33339 123-566, E498K).
T3 sequence: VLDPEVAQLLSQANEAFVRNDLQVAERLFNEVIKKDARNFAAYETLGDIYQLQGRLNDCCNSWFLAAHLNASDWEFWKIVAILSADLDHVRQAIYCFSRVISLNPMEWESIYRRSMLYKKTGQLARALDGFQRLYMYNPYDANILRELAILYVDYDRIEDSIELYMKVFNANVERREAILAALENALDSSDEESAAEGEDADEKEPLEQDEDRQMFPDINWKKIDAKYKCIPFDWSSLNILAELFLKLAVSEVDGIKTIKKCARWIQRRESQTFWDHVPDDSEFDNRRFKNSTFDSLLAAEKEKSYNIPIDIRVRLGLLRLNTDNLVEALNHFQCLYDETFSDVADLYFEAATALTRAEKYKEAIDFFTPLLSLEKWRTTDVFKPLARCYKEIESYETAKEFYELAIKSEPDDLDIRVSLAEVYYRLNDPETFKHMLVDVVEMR
Briefly: ITC.

Assay [4] concerns the target T4, τ131 (123–566) E497K (S. cerevisiae, UniProt P33339 123-566, E497K).
T4 sequence: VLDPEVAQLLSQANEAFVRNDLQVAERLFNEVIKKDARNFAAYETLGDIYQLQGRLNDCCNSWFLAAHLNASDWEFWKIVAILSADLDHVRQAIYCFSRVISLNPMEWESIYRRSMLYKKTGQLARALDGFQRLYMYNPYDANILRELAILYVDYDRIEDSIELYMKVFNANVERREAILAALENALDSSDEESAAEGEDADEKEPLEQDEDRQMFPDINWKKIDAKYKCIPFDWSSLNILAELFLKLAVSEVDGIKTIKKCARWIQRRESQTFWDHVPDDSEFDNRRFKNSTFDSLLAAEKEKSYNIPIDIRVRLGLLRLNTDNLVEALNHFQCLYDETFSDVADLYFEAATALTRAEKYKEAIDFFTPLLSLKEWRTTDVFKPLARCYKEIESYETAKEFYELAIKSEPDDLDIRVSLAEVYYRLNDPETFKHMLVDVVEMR
As to the kind of experiment: ITC.

Assay [5] deals with T5, τ131 (123–566) E498K (S. cerevisiae, UniProt P33339 123-566, E498K).
T5 construct: source: E. coli, purified by the same method as the wild type; not shown: His6, N-terminal, cleaved
T5 sequence (looked up): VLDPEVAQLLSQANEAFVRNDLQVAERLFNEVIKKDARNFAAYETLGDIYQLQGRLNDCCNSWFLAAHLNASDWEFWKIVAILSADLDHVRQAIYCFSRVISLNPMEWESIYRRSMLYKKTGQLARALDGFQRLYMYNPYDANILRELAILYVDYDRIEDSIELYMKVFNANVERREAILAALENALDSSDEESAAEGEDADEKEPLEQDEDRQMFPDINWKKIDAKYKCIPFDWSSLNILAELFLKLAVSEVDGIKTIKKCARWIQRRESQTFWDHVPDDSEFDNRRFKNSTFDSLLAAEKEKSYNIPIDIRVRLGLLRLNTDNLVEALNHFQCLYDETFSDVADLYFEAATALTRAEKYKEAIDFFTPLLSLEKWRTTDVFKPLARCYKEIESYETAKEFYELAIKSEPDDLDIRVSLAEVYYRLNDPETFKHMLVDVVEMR
Briefly: ITC; MicroCal ITC200; 15 μM τ138 in the cell, 150 μM τ131 in the syringe; 20 mM Tris pH 7.5, 150 mM NaCl, 2 mM β-mercaptoethanol; 25 °C. To be noted: both partners purified.

Assay [6] deals with T6, τ131 (123–566) E472K (S. cerevisiae, UniProt P33339 123-566, E472K).
T6 construct: source: E. coli, purified by the same method as the wild type; not shown: His6, N-terminal, cleaved
T6 sequence (looked up): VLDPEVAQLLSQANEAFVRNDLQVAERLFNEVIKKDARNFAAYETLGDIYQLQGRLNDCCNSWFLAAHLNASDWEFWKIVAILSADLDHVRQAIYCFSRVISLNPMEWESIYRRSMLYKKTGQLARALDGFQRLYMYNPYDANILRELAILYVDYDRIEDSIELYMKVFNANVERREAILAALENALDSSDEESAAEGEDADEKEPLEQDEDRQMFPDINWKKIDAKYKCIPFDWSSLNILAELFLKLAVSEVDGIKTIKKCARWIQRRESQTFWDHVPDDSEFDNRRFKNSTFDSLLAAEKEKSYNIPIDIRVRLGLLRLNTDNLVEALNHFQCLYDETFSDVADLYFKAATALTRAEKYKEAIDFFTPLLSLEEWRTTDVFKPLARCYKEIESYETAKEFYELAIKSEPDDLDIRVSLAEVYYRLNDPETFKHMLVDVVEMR
Described as above. To be noted: both partners purified.

Assay [7] deals with T7, τ131 (123–566), TPR array, wild type (S. cerevisiae, UniProt P33339 123-566).
T7 construct: also called τ131 TPR array; source: E. coli BL21 Star (DE3) pRARE, purified (Ni-NTA, TEV cleavage, S200 SEC); not shown: His6, N-terminal, cleaved
T7 sequence (looked up): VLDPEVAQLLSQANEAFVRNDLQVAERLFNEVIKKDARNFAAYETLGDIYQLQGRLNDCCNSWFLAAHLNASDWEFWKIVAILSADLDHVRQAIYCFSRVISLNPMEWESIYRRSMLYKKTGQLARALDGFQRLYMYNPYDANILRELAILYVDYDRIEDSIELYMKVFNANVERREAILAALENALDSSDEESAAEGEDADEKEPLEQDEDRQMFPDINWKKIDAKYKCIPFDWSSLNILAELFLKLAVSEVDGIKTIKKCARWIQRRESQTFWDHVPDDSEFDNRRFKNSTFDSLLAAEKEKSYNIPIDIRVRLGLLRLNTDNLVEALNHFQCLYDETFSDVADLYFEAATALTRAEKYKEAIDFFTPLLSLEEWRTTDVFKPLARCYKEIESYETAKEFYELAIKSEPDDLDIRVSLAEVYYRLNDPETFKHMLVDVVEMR
The assay is described as above. To be noted: both partners purified.

Assay [8] deals with T8, τ131 (123–566) E497K (S. cerevisiae, UniProt P33339 123-566, E497K).
T8 construct: source: E. coli, purified by the same method as the wild type; not shown: His6, N-terminal, cleaved
T8 sequence (looked up): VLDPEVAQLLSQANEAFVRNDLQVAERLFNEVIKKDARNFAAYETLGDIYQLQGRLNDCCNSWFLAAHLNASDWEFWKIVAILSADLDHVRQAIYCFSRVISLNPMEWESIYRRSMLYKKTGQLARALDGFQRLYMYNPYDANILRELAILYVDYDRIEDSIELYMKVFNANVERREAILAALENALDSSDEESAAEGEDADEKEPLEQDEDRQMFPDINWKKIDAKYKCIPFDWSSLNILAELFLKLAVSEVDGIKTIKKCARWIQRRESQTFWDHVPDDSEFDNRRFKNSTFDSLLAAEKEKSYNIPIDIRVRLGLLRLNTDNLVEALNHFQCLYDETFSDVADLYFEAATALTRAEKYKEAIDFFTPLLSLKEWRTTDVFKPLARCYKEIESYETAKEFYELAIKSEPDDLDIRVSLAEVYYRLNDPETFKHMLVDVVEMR
The assay is described as above. To be noted: both partners purified.

B1: τ91 (Tfc6), τB subunit of endogenous S. cerevisiae TFIIIC (natural protein, UniProt Q06339 1-672, looked up)
chain: MAVIPAKKRGRPRKSVVAEVPYDSLASPVSENSGSKRPRRNASKKAVANFAQLVHAGRDDVINTTQVNNVDDTDDDDFVLNDEGDGEESDNVEIEFENELESTKNEVADLNSSGSGASVRPSGRRNTVQKLRLKKNSTKNMKSSSPGSSLGQKGRPIRLLKDLSSARDKIERIYGLNKEKLLLLAKVKEGFETSVFDFPFKNIQPDSPYFVCLDPPCKKESAYNKVIGDKNRTVYHEINKTEFENMIKLRTKRLKLLIGEVDAEVSTGDKIEFPVLANGKRRGFIYNVGGLVTDIAWLNIEENTDIGKDIQYLAVAVSQYMDEPLNEHLEMFDKEKHSSCIQIFKMNTSTLHCVKVQTIVHSFGEVWDLKWHEGCHAPHLVGCLSFVSQEGTINFLEIIDNATDVHVFKMCEKPSLTLSLADSLITTFDFLSPTTVVCGFKNGFVAEFDLTDPEVPSFYDQVHDSYILSVSTAYSDFEDTVVSTVAVDGYFYIFNPKDIATTKTTVSRFRGSNLVPVVYCPQIYSYIYSDGASSLRAVPSRAAFAVHPLVSRETTITAIGVSRLHPMVLAGSADGSLIITNAARRLLHGIKNSSATQKSLRLWKWDYSIKDDKYRIDSSYEVYPLTVNDVSKAKIDAHGINITCTKWNETSAGGKCYAFSNSAGLLTLEYLS
notes: τ91 (Tfc6), subunit of S. cerevisiae TFIIIC, endogenous subunit in the purified complex; source: endogenous, purified from S. cerevisiae strain SC2342 as part of TFIIIC (TAP tag on τ60)
Regarding B1, the binding result in assay [1] is listed as “binds”.

B2: τ138 (641–693), τ131-Interaction Region (τIR) (domain or fragment, S. cerevisiae, UniProt P34111 641-693, looked up)
chain: SKKATFTDVIHDTEIYFFDQTEKNRFHRGKKSVERIRKFQNRQKNAKIKASDD
notes: The cloning and tag of this construct as used for ITC and SEC are not described; also called τ138 (τIR); unstructured region of τ138; source: purified; expression of this construct not described
Take B2: the dissociation constant Kd with τ131 (123–566) E472K [2] was 833 nM; in the assay with τ131 (123–566) E498K [3], 833 nM; with τ131 (123–566) E497K [4], 89 nM; in assay [7] it was approximately 80 nM. The binding result with τ131 (123–566) E498K [5], with τ131 (123–566) E472K [6] and with τ131 (123–566) E497K [8] was “binds” throughout.
